Test results taken from patent publication US20060193849A1 (published 2006).

Biological target: MUC-1 gene product, the membrane mucin glycoprotein (polymorphic epithelial mucin or PEM) (human, UniProt P15941 24-1255)
Test: flow cytometry equilibrium binding on MCF7 cells

MUC-1 gene product, the membrane mucin glycoprotein (polymorphic epithelial mucin or PEM), sequence (P15941 24-1255): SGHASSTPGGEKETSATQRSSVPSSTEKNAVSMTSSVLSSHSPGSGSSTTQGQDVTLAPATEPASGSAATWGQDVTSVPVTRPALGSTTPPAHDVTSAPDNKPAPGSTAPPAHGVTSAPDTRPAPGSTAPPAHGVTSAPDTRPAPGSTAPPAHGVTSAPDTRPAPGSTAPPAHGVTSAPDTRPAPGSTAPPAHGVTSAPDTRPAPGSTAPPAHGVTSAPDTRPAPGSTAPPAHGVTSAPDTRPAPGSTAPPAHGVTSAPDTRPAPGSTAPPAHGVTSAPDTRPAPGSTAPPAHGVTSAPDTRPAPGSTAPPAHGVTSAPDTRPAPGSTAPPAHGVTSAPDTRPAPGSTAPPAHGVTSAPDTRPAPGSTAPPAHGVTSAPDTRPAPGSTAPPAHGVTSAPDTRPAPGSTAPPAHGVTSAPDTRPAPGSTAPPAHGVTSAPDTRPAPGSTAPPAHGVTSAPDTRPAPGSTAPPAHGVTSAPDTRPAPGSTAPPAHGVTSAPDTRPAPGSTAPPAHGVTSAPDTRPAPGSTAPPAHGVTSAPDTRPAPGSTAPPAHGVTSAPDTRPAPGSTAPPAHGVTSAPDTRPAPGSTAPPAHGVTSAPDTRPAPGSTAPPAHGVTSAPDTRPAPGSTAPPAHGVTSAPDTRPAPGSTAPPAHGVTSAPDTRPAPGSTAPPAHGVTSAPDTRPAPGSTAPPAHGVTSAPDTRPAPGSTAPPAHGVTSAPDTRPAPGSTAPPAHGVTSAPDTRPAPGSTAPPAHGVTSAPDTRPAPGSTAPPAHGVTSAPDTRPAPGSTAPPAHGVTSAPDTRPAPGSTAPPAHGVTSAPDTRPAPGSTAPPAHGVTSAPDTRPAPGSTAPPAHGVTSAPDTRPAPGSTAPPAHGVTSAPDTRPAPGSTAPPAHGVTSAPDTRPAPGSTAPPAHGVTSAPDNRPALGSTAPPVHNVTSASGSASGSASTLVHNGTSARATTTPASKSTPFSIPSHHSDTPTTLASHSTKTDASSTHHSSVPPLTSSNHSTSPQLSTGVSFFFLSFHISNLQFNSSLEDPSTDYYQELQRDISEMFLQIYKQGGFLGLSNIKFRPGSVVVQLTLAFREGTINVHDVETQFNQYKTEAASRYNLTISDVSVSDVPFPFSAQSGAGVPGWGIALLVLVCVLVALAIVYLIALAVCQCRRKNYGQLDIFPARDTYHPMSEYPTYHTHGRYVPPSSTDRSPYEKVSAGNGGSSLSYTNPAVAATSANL

Kd: 0.114 µM
B1: huHMFG1 wild-type scFv 4.10W (scFv)
scFv: QVQLVQSGAEVKKPGASVKVSCKASGYTFSAYWIEWVRQAPGKGLEWVGEILPGSNNSRYNEKFKGRVTVTRDTSTNTAYMELSSLRSEDTAVYYCARSYDFAWFAYWGQGTLVTVSSGGGGSGGGGSGGGGSDIQMTQSPSSLSASVGDRVTITCKSSQSLLYSSNQKIYLAWYQQKPGKAPKLLIYWASTRESGVPSRFSGSGSGTDFTFTISSLQPEDIATYYCQQYYRYPRTFGQGTKVEIKR
